The text below walks through data of patent US20170274068A1, “IMMUNOLOGICAL REAGENT” (priority 2014, published 2017).

Series [1] is described as follows: Optical density of antigen and lipopeptide formulations (450 nm). It counts as physicochemical. As to conditions: constant OVA (25 μg) plus increasing lipopeptide, up to 3-fold molar excess, PBS.
Procedure: Optical density of antigen and lipopeptide formulations. A constant amount (0.55 nmol; 25 μg) of OVA was mixed with each lipopeptide at different protein:lipopeptide molar ratios in 50 μl of PBS in a 96-well plate at room temperature. The optical density of these solutions was then measured on a plate reader at a wavelength of 450 nm.
Another series deals with CD8+CD45.1+ OT-I cells. Nature of the series: In vivo proliferative T cell responses, adoptive transfer of CFSE labelled OT-I cells. Further details: species or system C57BL/6 mice. As to conditions: 3 μg OVA alone or with 3-fold molar excess lipopeptide, s.c., inguinal LNs day 3.
Series [2] in a line: Dynamic light scattering analysis of vaccine formulations. The format is physicochemical. The protocol: FIG. 3. Particle size distribution of antigen and lipopeptide formulations. OVA (25 μg) was mixed with each lipopeptide at a 1:3 molar ratio of protein to lipopeptide in […] of PBS in a 96-well plate at room temperature. The size distribution of particulates in samples were then analysed by dynamic light scattering with each profile depicting the hydrodynamic radius (nm) of particles detected versus the percentage intensity of scattered light (% intensity).
To determine the size of complexes formed between OVA and each lipopeptide, we analysed these formulations by dynamic light scattering.

Source text for CD8+CD45.1+ OT-I cells: In vivo proliferative T cell responses. […] Inguinal LNs were obtained 3 days after vaccination and CFSE intensities of CD8^+CD45.1^+ cells measured by flow cytometry.
To characterise early events associated with vaccine-mediated induction of CD8^+ T cell responses, the present inventors utilised the adoptive transfer of CD8^+ T cells from OTI transgenic mice that express the Vα2 TCR specific for OVA257. […] Analysis of OTI T cells in the draining lymph nodes of vaccinated animals was then carried out 3 days later and the loss of CFSE in these cells was used as an indicator of T cell proliferation.

As for `CCCCCCCCCCCCCCCC(=O)OCC(CSCC(N)C(=O)N[C@@H](CO)C(=O)N[C@@H](CO)C(=O)NCCCC[C@H](NC(=O)[C@H](CCCCNC(=O)[C@H](CCCCNC(=O)[C@@H](N)CCCNC(=N)N)NC(=O)[C@@H](N)CCCNC(=N)N)NC(=O)[C@H](CCCCNC(=O)[C@@H](N)CCCNC(=N)N)NC(=O)[C@@H](N)CCCNC(=N)N)C(N)=O)OC(=O)CCCCCCCCCCCCCCC` (some centres unmarked) [R4Pam2Cys], the “optical density (OD) of solutions, solubility” value in series [1] is listed as “increase in OD”. On to “OVA: protein antigen OVA used as model antigen, alone”, for which the “division of T cells (percentage of OT-I cells which proliferated)” value with CD8+CD45.1+ OT-I cells is around 37%.

B1: OVA: protein antigen OVA used as model antigen, alone (protein, UniProt P01012 2-386, looked up)
Ovalbumin: GSIGAASMEFCFDVFKELKVHHANENIFYCPIAIMSALAMVYLGAKDSTRTQINKVVRFDKLPGFGDSIEAQCGTSVNVHSSLRDILNQITKPNDVYSFSLASRLYAEERYPILPEYLQCVKELYRGGLEPINFQTAADQARELINSWVESQTNGIIRNVLQPSSVDSQTAMVLVNAIVFKGLWEKAFKDEDTQAMPFRVTEQESKPVQMMYQIGLFRVASMASEKMKILELPFASGTMSMLVLLPDEVSGLEQLESIINFEKLTEWTSSNVMEERKIKVYLPRMKMEEKYNLTSVLMAMGITDVFSSSANLSGISSAESLKISQAVHAAHAEINEAGREVVGSAEAGVDAASVSEEFRADHPFLFCIKHIATNAVLFFGRCVSP
As for B1, the “Hydrodynamic diameter (nm)” value in series [2] (DLS at 25° C in PBS, mixtures: OVA 25 μg, 1:3 molar ratio protein to lipopeptide) was found to be 199.5 ± 42.6 nm. Also, the “% Pd (polydispersity)” value in series [2] (DLS at 25° C, <20% is considered monodispersed) was 27.1 ± 11.5%. In addition, the “particle size of sample alone” value in series [2] (OVA or lipopeptide alone) was 157-242 nm.
